Measured values published in publication PMC2172279.

How the values were obtained:
Assay in all cases: co-sedimentation
[1] = molecular target: dHMM heavy chain (dilute heavy meromyosin: six IQ motifs followed by a coiled-coil tail) (murine) (UniProt Q99104)
[2] = molecular target: dFull heavy chain (expressed full-length murine myosin V) (murine)
[3] = molecular target: MD2IQ heavy chain (murine myosin V motor domain and the first two IQ motifs) (murine) (UniProt Q99104)

Substance: wild-type calmodulin (WT-CaM) (from UniProt P0DP33 1-149) (natural protein)
- mol CaM dissociated per mol HC in calcium (mol CaM per mol HC) [1]: 1.5
- mol CaM dissociated per mol HC in calcium (mol CaM per mol HC) [2]: 1.7
- mol CaM dissociated per mol HC in calcium (mol CaM per mol HC) [3]: 0.5
